These results are taken from patent US20150203555A1.

Some results are limits rather than exact numbers.

The assay addresses T1, Vascular endothelial growth factor (VEGF165), P15692.
T1 chain: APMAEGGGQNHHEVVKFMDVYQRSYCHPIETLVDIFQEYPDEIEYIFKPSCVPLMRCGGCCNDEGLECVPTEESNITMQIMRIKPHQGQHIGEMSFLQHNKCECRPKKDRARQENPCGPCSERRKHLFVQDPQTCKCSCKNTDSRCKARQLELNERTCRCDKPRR
Kind of assay: competition FP, tracer BODIPY-v114*ΔNT.

B1: Z-VEGF (1-38) (peptide)
peptide: VDNKFNKEMHNAYAIEIALLPNLNDQQFHAFIWSLIDD
modifications: not checked
With B1, the Ki (as a rule, a dissociation constant, usually derived from enzyme kinetics or from competition with a known ligand) was more than 100 µM.

B2: α-VEGF-1 (peptide)
peptide: VDNKFNKEQHNARAIEAALDPNLNDQQFHAKIWSIIDD
modifications: not checked
The molecule B2 displayed a Ki of more than 100 µM.
